Values of other authors as cited in article PMC2820514.

Biological target: CaMKII monomer (UniProt Q9UQM7)

Kd: 1.3 µM
Substance: CaMKII monomer (from UniProt Q9UQM7)
